According to patent US20120220015:
Substitutions are numbered along the chain they refer to. In names and notes the source's numbering stands.

T1: α2-antiplasmin, P08697
T1 chain: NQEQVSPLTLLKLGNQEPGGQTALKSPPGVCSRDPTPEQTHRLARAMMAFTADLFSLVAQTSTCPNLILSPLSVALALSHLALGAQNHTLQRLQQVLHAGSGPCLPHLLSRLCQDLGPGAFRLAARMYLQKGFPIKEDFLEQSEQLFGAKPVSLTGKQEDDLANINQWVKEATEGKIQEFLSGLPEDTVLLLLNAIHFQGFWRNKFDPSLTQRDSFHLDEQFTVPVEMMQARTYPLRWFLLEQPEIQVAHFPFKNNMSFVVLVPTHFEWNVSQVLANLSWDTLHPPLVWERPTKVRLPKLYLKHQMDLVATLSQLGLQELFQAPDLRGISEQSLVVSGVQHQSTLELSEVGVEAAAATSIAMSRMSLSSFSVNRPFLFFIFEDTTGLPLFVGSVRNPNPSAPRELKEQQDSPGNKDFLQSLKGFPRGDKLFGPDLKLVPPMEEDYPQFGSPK

T2: fibrin (clot formed from purified fibrinogen with α-thrombin), P02671
T2 chain 1: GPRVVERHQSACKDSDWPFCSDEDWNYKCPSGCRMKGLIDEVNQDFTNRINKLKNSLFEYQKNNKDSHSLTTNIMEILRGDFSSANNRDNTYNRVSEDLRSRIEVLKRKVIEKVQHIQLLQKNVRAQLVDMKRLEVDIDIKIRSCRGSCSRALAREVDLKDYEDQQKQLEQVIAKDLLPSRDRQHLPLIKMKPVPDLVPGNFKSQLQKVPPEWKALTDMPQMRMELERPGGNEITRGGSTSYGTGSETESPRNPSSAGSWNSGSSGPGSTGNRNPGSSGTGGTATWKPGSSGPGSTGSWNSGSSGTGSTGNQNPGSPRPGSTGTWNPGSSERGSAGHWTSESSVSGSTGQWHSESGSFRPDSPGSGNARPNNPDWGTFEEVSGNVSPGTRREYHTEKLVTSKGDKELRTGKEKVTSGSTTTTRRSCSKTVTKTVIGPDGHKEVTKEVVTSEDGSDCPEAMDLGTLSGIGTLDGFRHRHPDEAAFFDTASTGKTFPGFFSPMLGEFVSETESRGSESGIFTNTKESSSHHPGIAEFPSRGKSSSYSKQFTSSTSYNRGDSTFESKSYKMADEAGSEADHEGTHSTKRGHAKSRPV
T2 chain 2: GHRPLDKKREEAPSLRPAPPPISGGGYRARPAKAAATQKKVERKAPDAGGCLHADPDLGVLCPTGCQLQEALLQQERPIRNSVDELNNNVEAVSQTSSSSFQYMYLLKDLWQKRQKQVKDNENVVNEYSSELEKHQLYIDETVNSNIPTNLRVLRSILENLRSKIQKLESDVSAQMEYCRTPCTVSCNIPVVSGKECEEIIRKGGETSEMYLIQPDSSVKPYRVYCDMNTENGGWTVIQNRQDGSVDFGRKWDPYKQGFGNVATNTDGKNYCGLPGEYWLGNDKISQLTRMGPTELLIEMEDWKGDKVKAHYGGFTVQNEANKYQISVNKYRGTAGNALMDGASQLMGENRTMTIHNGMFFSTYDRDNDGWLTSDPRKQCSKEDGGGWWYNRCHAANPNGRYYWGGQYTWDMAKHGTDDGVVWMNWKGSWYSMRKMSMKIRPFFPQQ
T2 chain 3: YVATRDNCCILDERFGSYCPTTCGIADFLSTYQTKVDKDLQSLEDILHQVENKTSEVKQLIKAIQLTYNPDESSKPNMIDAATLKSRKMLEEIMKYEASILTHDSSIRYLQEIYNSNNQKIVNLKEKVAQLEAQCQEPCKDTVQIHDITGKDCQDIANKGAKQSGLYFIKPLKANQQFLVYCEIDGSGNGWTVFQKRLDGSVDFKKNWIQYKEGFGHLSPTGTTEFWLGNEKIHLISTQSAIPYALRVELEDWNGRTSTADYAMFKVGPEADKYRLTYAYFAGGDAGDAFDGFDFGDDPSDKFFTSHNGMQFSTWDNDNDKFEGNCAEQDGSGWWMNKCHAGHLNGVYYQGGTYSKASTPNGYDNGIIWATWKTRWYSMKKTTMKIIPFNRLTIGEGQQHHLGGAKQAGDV

B1: Lemna-derived plasmin from transgenic line BAP12-B2-150 (aglycosylated plasmin derived from mature human plasminogen with the N289D substitution) (protein)
chain 1: KVYLSECKTGNGKNYRGTMSKTKNGITCQKWSSTSPHRPRFSPATHPSEGLEENYCRNPDNDPQGPWCYTTDPEKRYDYCDILECEEECMHCSGENYDGKISKTMSGLECQAWDSQSPHAHGYIPSKFPNKNLKKNYCRNPDRELRPWCFTTDPNKRWELCDIPRCTTPPPSSGPTYQCLKGTGENYRGNVAVTVSGHTCQHWSAQTPHTHDRTPENFPCKNLDENYCRNPDGKRAPWCHTTNSQVRWEYCKIPSCDSSPVSTEQLAPTAPPELTPVVQDCYHGDGQSYRGTSSTTTTGKKCQSWSSMTPHRHQKTPENYPNAGLTMNYCRNPDADKGPWCFTTDPSVRWEYCNLKKCSGTEASVVAPPPVVLLPDVETPSEEDCMFGNGKGYRGKRATTVTGTPCQDWAAQEPHRHSIFTPETNPRAGLEKNYCRNPDGDVGGPWCYTTNPRKLYDYCDVPQCAAPSFDCGKPQVEPKKCPGR
chain 2: VVGGCVAHPHSWPWQVSLRTRFGMHFCGGTLISPEWVLTAAHCLEKSPRPSSYKVILGAHQEVNLEPHVQEIEVSRLFLEPTRKDIALLKLSSPAVITDKVIPACLPSPNYVVADRTECFVTGWGETQGTFGAGLLKEAQLPVIENKVCNRYEFLNGRVQSTELCAGHLAGGTDSCQGDSGGPLVCFEKDKYILQGVTSWGLGCARPNKPGVYVRVSRFVTWIEGVMRNN
B2: Lemna-derived plasmin from transgenic line BAP01-B2-230 (derived from mature human plasminogen with the N-linked glycosylation site Asn-289) (protein)
chain 1: B1 chain 1 with D212N
chain 2: B1 chain 2

What was measured:
α2-antiplasmin, P08697 = target: T1, α2-antiplasmin, P08697
[1] = target: T2, fibrin (clot formed from purified …)

Protein	plasmin activity (S-2403 hydrolysis at 405 nm) after 30 minutes pre-incubation with α2-AP, plasmin:α2-AP molar ratio of 1:1 (α2-antiplasmin, P08697)	fibrin clot lysis (decrease of turbidity at 340 nm), plasmin at 500, 250, 125 and 62 nM [1]
B1	no plasmin activity was detected for human, BAP12-B2-150, or BAP01-B1-230 plasmin, indicating that the inhibition was complete	There was no evidence of a difference between fibrinolysis induced by plasmin derived from BAP01-B2-230 and BAP12-B2-150; their respective lysis profiles were very similar for all four plasmin concentrations
B2	no plasmin activity was detected for human, BAP12-B2-150, or BAP01-B1-230 plasmin, indicating that the inhibition was complete	There was no evidence of a difference between fibrinolysis induced by plasmin derived from BAP01-B2-230 and BAP12-B2-150; their respective lysis profiles were very similar for all four plasmin concentrations
